± gives the half width of the 95% confidence interval.
Experiments:
[1] = folding stability dG unfold from trypsin proteolysis; higher = more stable
Method in brief: (§1)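 Designed mini-proteins (under 80 residues, no cysteine) in a PA-tagged cDNA display construct were digested with trypsin and chymotrypsin. Each protease was used at 11 concentrations (threefold dilutions) plus a no-protease condition, followed by sequencing. K50 was inferred by Bayesian fitting of sequencing counts, and unfolding free energy was derived against a sequence-predicted unfolded-state K50 and a shared folded-state K50, per protease or combined. Only designs with AlphaFold2 dimer inter-PAE above 15 were kept.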

[2] = folding stability dG unfold (combined trypsin and chymotrypsin); higher = more stable
Method in brief: as §1

[3] = folding stability dG unfold from chymotrypsin proteolysis; higher = more stable
Method in brief: as §1

Sequence	folding stability dG unfold [1] [kcal/mol]	folding stability dG unfold [2] [kcal/mol]	folding stability dG unfold [3] [kcal/mol]
SAGGPDWKTVEVEIQVKDPEDRPEAIEEAEEWAQELAENNPGYKIKGVDVEIWPHNGWYQIRIPITVESAGG [r13_305_TrROS]	0.733 ± 0.1	0.79 ± 0.19	1.01 ± 0.21
SAGGMELVIAVNSKEEAKKAAEEIKKKTPKGFKLEIEIEEYDLKENVEPEDKDIENIKVYLIKVKLESAGGS [r16_795_TrMRF]	1.4 ± 0.13	1.69 ± 0.23	2.01 ± 0.21
SAGSKEEKAKEIAKKLAEELKKKFPDLKIVEVKVVKIEYNKENKEIKITIYVYNKNGKLIKKIEITLPSAGG [r19_53_TrROS_Hall]	3.58 ± 0.2	4.38 ± 0.18	4.63 ± 0.11
PLTFPALVRNPLEDRWEEVTVTLHPDGTLTVTHRGRPLASVRVVTRPPPEVELVPVRDADGVERLGLRTRGS [r1_496_TrMRF]	0.346 ± 0.071	0.964 ± 0.074	1.21 ± 0.08
SAGGSMELELEVKNPETGKTYKVKITSFDEETGEVTVEIEDEETGETKTLTFKVEPVELVEEEEEESAGGSA [r2_147_TrROS_Hall]	2.38 ± 0.1	3.08 ± 0.076	3.28 ± 0.037
SEPWELVEERELPPNAVITFPNGEKLEIDPEKARVRVWRRPDSVRVLVVLKDGTVLEFEFYAPPRVTDDDSA [r9_348_TrMRF]	2.62 ± 0.074	2.69 ± 0.1	2.58 ± 0.033
SAGSYSVTADVTVHPDGTVDVTLTITTNGEDGTTETSTVLPLTLDLPPGTAVTVTVDPNNGTVTVTVEASAG [r5_179_JUSTAS]	3.01 ± 0.14	3.89 ± 0.079	4.14 ± 0.058
SAGGSAGGSDMTMTYIIPLPDYAIVISFKIEITEVEYNPENGKPVKFRFDIEIKIEVFPPGDLSAGGSAGGS [r12_809_TrROS]	3.46 ± 0.21	4.38 ± 0.29	4.68 ± 0.19
SAGGSAGGSAGEEVLTLTFPVPPDAPPPGLEAIRESLPGLEDVELDAEELPDGTVRVVLSSAGGSAGGSAGG [r17_205_TrMRF]	-0.558 ± 0.19	-0.452 ± 0.68	-0.172 ± 0.4
SAAEIDEDGTIRIVLSEEAVKNMSEEELKALAEELAKLLPPGAKVEIKIVKPKPVKEEKKLYDKDGKEVSAG [r14_312_TrROS_Hall]	1.19 ± 0.083	0.788 ± 0.15	0.0971 ± 0.054
SAGWKPITAEEIKKLVKEFAEKAPPGDKRPVTVEIRLPLPNGRHWVFTIKVERTDNNVKVKIEVQPYNSAGG [r19_220_TrROS]	2.49 ± 0.076	3.2 ± 0.11	3.64 ± 0.039
SKKPDYVILIEIEVEKNENGEKTIKKKIIIYDKNGKKKLIAEEEITIEVNGIKIKIKIKIFPKGASLEELSA [r9_1113_TrROS_Hall]	3.51 ± 0.26	2.87 ± 0.2	2.23 ± 0.16
SAGMTYTEKVFTSEVTLPEIGAKITITTTVKTPPSGETEPTVEVTFDLPETASEEVVKAVLEELNIPVESAG [r5_486_JUSTAS]	-0.411 ± 0.2	0.628 ± 0.38	1.13 ± 0.066
MTKKTVTLPIPEPIRAAIEAGKPLPLEEIVDLVRDVVAKELGFKDVKVLSVEIKPLPNGEIVVEVTVEFPES [r1_290_TrMRF]	3.09 ± 0.28	2.89 ± 0.23	2.79 ± 0.16
SAGGSAGGSADEIPIMIKIKYKNGGKKREHTITFRVEPNMPNLDEFAKELANNGRIEEVEISAGGSAGGSAG [r3_30_TrROS]	0.629 ± 0.14	0.28 ± 0.25	-0.282 ± 0.59
SAGGSAGGSAGGGKTVVYRFPASLTPEQAVDEITAKVPPNYPVIVEYHPESGTFVAYVPSAGGSAGGSAGGS [r10_163_TrMRF]	0.725 ± 0.1	0.666 ± 0.15	0.743 ± 0.29

Sequence	folding stability dG unfold [1] [kcal/mol]	folding stability dG unfold [2] [kcal/mol]	folding stability dG unfold [3] [kcal/mol]
SAGGPDWQTIRITFWFDSPEDAEEEVRNIARTMGLPPEGIKVEITDFEPREVNGKNYYMVEAEITIPSAGGS [r16_240_TrROS]	2.95 ± 0.044	3.93 ± 0.062	4.274 ± 0.035
SAGGSAGGSAMKVPLENVENPKKFPGTGLEIYTFTDKETGKKKIVLVEKPPNKGKKITVIESAGGSAGGSAG [r3_491_JUSTAS]	0.0339 ± 0.12	0.0523 ± 0.14	-0.146 ± 0.28
SAGGSAKVIAVPSLEEALKLAEEAAKEGKDIVVLFPDNRLLVVEVKPAPDDKPVLKLKVFEIPPELSAGGSA [r15_761_TrMRF]	0.47 ± 0.049	0.767 ± 0.15	0.974 ± 0.072
SAGGSAGGSVLVIDSPEQIKKAIKEFKDNGAKSIHIRGPGRYWVIQIDPKEPKVKVERVPLGQSAGGSAGGS [r12_368_TrROS]	0.639 ± 0.096	0.643 ± 0.16	0.674 ± 0.17
SAGGMPPGQVVRLRLERVSPTWVRLYFPETGEVLYFPVRPDATLAEAEAIARELAERLGYPVEIETVSAGGS [r16_446_TrMRF]	3.76 ± 0.077	3.8 ± 0.07	3.779 ± 0.014
SAGGSTVSVVPFPDYLLVVTTDVRRTPVPDTDTVSTELTTTVTVIPLPDVPPPVLPFLDADGNPYYASAGGS [r8_46_TrMRF]	1.01 ± 0.093	0.694 ± 0.093	0.522 ± 0.11
SSPEEMAEKLAKELNFDKIEIKTEKLDLPSGPSEATVATAKLYNPATGKEYVVKILKFPDGSYEIVIEKKSA [r9_724_JUSTAS]	1.44 ± 0.042	2.28 ± 0.07	2.627 ± 0.015
SAGDEIEEKVKEILEKLNPDEPVVIKRTKDGRILAENPKTGKFIIFDISPDGTIKIVKVVPAEEAKKLGSAG [r5_852_TrMRF]	1.47 ± 0.12	2.18 ± 0.19	2.52 ± 0.071
SAGGSAGGSPKPIPIKIDEVWPNPDNGKDYIVKIEFPDGKKHTFTSPEDIRKLPGFDVEVYELSAGGSAGGS [r20_192_TrROS]	0.123 ± 0.058	0.621 ± 0.2	0.783 ± 0.27
SLDPGEPVYRIKVKIEMWNPNGKPIAEFTIPIRTLEEAKEAIKEMAREIAEKMGHPDMPIRIKDIEIEPYSA [r9_376_TrROS]	2.29 ± 0.033	2.27 ± 0.099	2.21 ± 0.045
SAGGGVTITASPDGTVTITIGGKPITVPVHPGATLEFRVEPTPDGRPAVTITWTSPDGTPYTFTFTGSAGGS [r16_231_TrMRF]	4.23 ± 0.14	4.89 ± 0.053	5.015 ± 0.036
SAGGSAGGSAGGVEIPPDKPVAIEVTSPEGPTATLIFDPKDGTVTVIEGGKPVEVPAEDFSAGGSAGGSAGG [r7_937_TrMRF]	0.0909 ± 0.059	-0.377 ± 0.29	-1.06 ± 0.53
SAGGSAGGSAGGMTTTTTAPESGDLVTIHPEKGIAVVTSPEGKVTEVPIDPDDYSVEPASAGGSAGGSAGGS [r10_568_JUSTAS]	0.343 ± 0.076	1.19 ± 0.12	1.57 ± 0.079
SAGAVEKLRKELEELGYEVELEEVEDEETGKTYFILRIRNPDGEIYEIKVDKKTGEIVEIFKVDNLEELSAG [r5_938_TrROS_Hall]	3.83 ± 0.17	4.14 ± 0.19	4.17 ± 0.064
SAGGSAGGSAGGEIPIKIRPYDPKDGEPKDEHPIPFDTPNGNSLDEIAKQLPPDHFEVDISAGGSAGGSAGG [r17_339_TrROS]	0.382 ± 0.067	0.875 ± 0.059	1.11 ± 0.018
